From FireProtDB (doi:10.1016/0168-1656(93)90129-b)

Details: Escherichia coli (strain K12), CD, reversible: yes, whole UniProt chain shown; for Tm: Thermal; for denaturant midpoint (higher = more stable) / unfolding free energy: 25 °C, GdnHCl

B1: Ribonuclease HI wild type, P0A7Y4 (protein)
chain: MLKQVEIFTDGSCLGNPGPGGYGAILRYRGREKTFSAGYTRTTNNRMELMAAIVALEALKEHCEVILSTDSQYVRQGITQWIHNWKKRGWKTADKKPVKNVDLWQRLDAALGQHQIKWEWVKGHAGHPENERCDELARAAAMNPTLEDTGYQVEV
- Tm (pH 3, glycine-HCl 10 mM): 49.4 °C
- denaturant midpoint (higher = more stable) (pH 5.5, Sodium acetate 20 mM): 1.79 M
- unfolding free energy (pH 5.5, Sodium acetate 20 mM): 9.21 kcal/mol
- Tm (pH 5.5, Sodium acetate 20 mM): 52.7 °C
- Tm (pH 7.8, Sodium phosphate 20 mM): 50.2 °C
- denaturant midpoint (higher = more stable) (pH 8.2, Tris-HCl 20 mM): 1.65 M
- unfolding free energy (pH 8.2, Tris-HCl 20 mM): 8.49 kcal/mol
